Three substances from PMC10194873 can be followed below.

The target of test [1] is CagI (untagged, residues 21 to 381) (Helicobacter pylori strain 26695). Nature of the test: SEC-MALS. A general note: In gel filtration, larger molecules generally elute earlier.
For test [2], the target named is CagI N-terminal domain (CagI^N) (Helicobacter pylori strain 26695). Nature of the test: SEC-MALS.
Test [3] has the same target. The test can be described thus: SEC-SAXS.
Test [4] has as its target CagI with a C-terminal strep-tag (residues 21-381) (Helicobacter pylori strain 26695). The test can be described thus: SEC-MALS.

As for “CagI (untagged, residues 21 to 381) (natural protein)”, in test [1], the stoichiometry N – broadly, the number of molecules, sites or subunits per partner or assembly – stood at 2. As for “CagI N-terminal domain (CagI^N) (domain or fragment)”, the stoichiometry N in test [2] and in test [3] was 2 each time. In test [4], “CagI with a C-terminal strep-tag (residues 21-381) (natural protein)” gave a stoichiometry N of 2.
